Protein	extent of peptide hydroxylation by MALDI-TOF (RpL8 209-228 peptide (…))	mass increase of the peptide by MALDI-TOF (hydroxylation) (RpL8 209-228 peptide (…))	extent of peptide hydroxylation by MALDI-TOF (RpL27a31-50 peptide (…))	mass increase of the peptide by MALDI-TOF (hydroxylation) (RpL27a31-50 peptide (…))
NO66 (A116-N641), N-terminally hexa-His tagged, recombinant (protein) QTPSARLVPASAPPARLVEVPAAPVRVVETSALLCTAQHLAAVQSSGAPATASGPQVDNTGGEPAWDSPLRRVLAELNRIPSSRRRAARLFEWLIAPMPPDHFYRRLWEREAVLVRRQDHTYYQGLFSTADLDSMLRNEEVQFGQHLDAARYINGRRETLNPPGRALPAAAWSLYQAGCSLRLLCPQAFSTTVWQFLAVLQEQFGSMAGSNVYLTPPNSQGFAPHYDDIEAFVLQLEGRKLWRVYRPRVPTEELALTSSPNFSQDDLGEPVLQTVLEPGDLLYFPRGFIHQAECQDGVHSLHLTLSTYQRNTWGDFLEAILPLAVQAAMEENVEFRRGLPRDFMDYMGAQHSDSKDPRRTAFMEKVRVLVARLGHFAPVDAVADQRAKDFIHDSLPPVLTDRERALSVYGLPIRWEAGEPVNVGAQLTTETEVHMLQDGIARLVGEGGHLFLYYTVENSRVYHLEEPKCLEIYPQQADAMELLLGSYPEFVRVGDLPCDSVEDQLSLATTLYDKGLLLTKMPLALN	hydroxylated to ˜85% as tested by MALDI-TOF analyses	displayed 16 Da increase in mass	–	–
Mina53 (A26-V465), N-terminally hexa-His tagged, recombinant (protein) AAGGPSALNFDSPSSLFESLISPIKTETFFKEFWEQKPLLIQRDDPALATYYGSLFKLTDLKSLCSRGMYYGRDVNVCRCVNGKKKVLNKDGKAHFLQLRKDFDQKRATIQFHQPQRFKDELWRIQEKLECYFGSLVGSNVYITPAGSQGLPPHYDDVEVFILQLEGEKHWRLYHPTVPLAREYSVEAEERIGRPVHEFMLKPGDLLYFPRGTIHQADTPAGLAHSTHVTISTYQNNSWGDFLLDTISGLVFDTAKEDVELRTGIPRQLLLQVESTTVATRRLSGFLRTLADRLEGTKELLSSDMKKDFIMHRLPPYSAGDGAELSTPGGKLPRLDSVVRLQFKDHIVLTVLPDQDQSDEAQEKMVYIYHSLKNSRETHMMGNEEETEFHGLRFPLSHLDALKQIWNSPAISVKDLKLTTDEEKESLVLSLWTECLIQVV	–	–	hydroxylated to ˜95% as tested by MALDI-TOF analyses	displayed a 16 Da increase in mass

Source: patent US20140248636
